Data from patent US20030092616A1, “STAT6 activation gene” (priority 2001, published 2003).

Each molecule was assayed on STAT6 (assay: Screening of full-length cDNA clones for promotion of STAT6 activation (luciferase reporter N4×8-luc)). Conditions: NIH3T3 cells cotransfected with N4×8-luc reporter and cDNA plasmid; 48 h culture, then mouse IL-4 0.5 ng/ml for 6 h.
Format: cell-based
Summary of the method: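 Promotion of STAT6 activation scored as increase in luciferase signal over null-vector control cells. NIH3T3 cells carried N4×8-luc (100 ng) plus cDNA clone; after 48 h culture, 6 h stimulation with 0.5 ng/ml (final) mouse IL-4 preceded reading.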

Molecule	Activity = (luciferase activity of the gene of each SEQ ID NO:)/(luciferase activity of pME18S-FL3)
275 (nucleic acid, listed as Homo sapiens, CDS (14)..(598)) GCAGACCCCCATCATGGGCAGCCAGAGCTCCAAGGCTCCCCGGGGCGACGTGACCGCCGAGGAGGCAGCAGGCGCTTCCCCCGCGAAGGCCAACGGCCAGGAGAATGGCCACGTGAAAAGCAATGGAGACTTATCCCCCAAGGGTGAAGGGGAGTCGCCCCCTGTGAACGGAACAGATGAGGCAGCCGGGGCCACTGGCGATGCCATCGAGCCAGCACCCCCTAGCCAGGGTGCTGAGGCCAAGGGGGAGGTCCCCCCCAAGGAGACCCCCAAGAAGAAGAAGAAATTCTCTTTCAAGAAGCCTTTCAAATTGAGCGGCCTGTCCTTCAAGAGAAATCGGAAGGAGGGTGGGGGTGATTCTTCTGCCTCCTCACCCACAGAGGAAGAGCAGGAGCAGGGGGAGATCGGTGCCTGCAGCGACGAGGGCACTGCTCAGGAAGGGAAGGCCGCAGCCACCCCTGAGAGCCAGGAACCCCAGGCCAAGGGGGCAGAGGCTAGTGCAGCCTCAGAAGAAGAGGCAGGGCCCCAGGCTACAGAGCCATCCACTCCCTCGGGGCCGGAGAGTGGCCCTACACCAGCCAGCGCTGAGCAGAATGAGTAGCTAGGTAGGGGCAGGTGGGTGATCTCTAAGCTGCAAAAACTGTGCTGTCCTTGTGAGGTCACTGCCTGGACCTGGTGCCCTGGCTGCCTTCCTGTGCCCAGAAAGGAAGGGGCTATTGCCTCCTCCCAGCCACGTTCCCTTTCCTCCTCTCCCTCCTGTGGATTCTCCCATCAGCCATCTGGTTCTCCTCTTAAGGCCAGTTGAAGATGGTCCCTTACAGCTTCCCAAGTTAGGTTAGTGATGTGAAATGCTCCTGTCCCTGGCCCTACCTCCTTCCCTGTCCCCACCCCTGCATAAGGCAGTTGTTGGTTTTCTTCCCCAATTCTTTTCCAAGTAGGTTTTGTTTACCCTACTCCCCAAATCCCTGAGCCAGAAGTGGGGTGCTTATACTCCCAAACCTTGAGTGTCCAGCCTTCCCCTGTTGTTTTTAGTCTCTTGTGCTGTGCCTAGTGGCACCTGGGCTGGGGAGGACACTGCCCCGTCTAGGTTTTTATAAATGTCTTACTCAAGTTCAAACCTCCAGCCTGTGAATCAACTGTGTCTCTTTTTTGACTTGGTAAGCAAGTATTAGGCTTTGGGGTGGGGGGAGGTCTGTAATGTGAAACAACTTCTTGTCTTTTTTTCTCCCACTGTTGTAAATAACTTTTAATGGCCAAACCCCAGATTTGTACTTTTTTTTTTTTTCTAACTGCTAAAACCATTCTCTTCCACCTGGTTTTACTGTAACATTTGG	17.0
69 (nucleic acid, listed as Homo sapiens, CDS (31)..(687)) AGTGTTTGGGTTTCTTCGCGGCTGCTCAAGATGAACCGACTCTTCGGGAAAGCGAAACCCAAGGCTCCGCCGCCCAGCCTGACTGACTGCATTGGCACGGTGGACAGTAGAGCAGAATCCATTGACAAGAAGATTTCTCGATTGGATGCTGAGCTAGTGAAGTATAAGGATCAGATCAAGAAGATGAGAGAGGGTCCTGCAAAGAATATGGTCAAGCAGAAAGCCTTGCGAGTTTTAAAGCAAAAGAGGATGTATGAGCAGCAGCGGGACAATCTTGCCCAACAGTCATTCAACATGGAACAAGCCAATTATACCATCCAGTCTTTGAAGGACACCAAGACCACGGTTGATGCTATGAAACTGGGAGTAAAGGAAATGAAGAAGGCATACAAGCAAGTGAAGATCGACCAGATTGAGGATTTACAAGACCAGCTAGAGGATATGATGGAAGATGCAAATGAAATCCAAGAAGCACTGAGTCGCAGTTATGGCACCCCAGAACTGGATGAAGATGATTTAGAAGCAGAGTTGGATGCACTAGGTGATGAGCTTCTGGCTGATGAAGACAGTTCTTATTTGGATGAGGCAGCATCTGCACCTGCAATTCCAGAAGGTGTTCCCACTGATACAAAAAACAAGGATGGAGTTCTGGTGGATGAATTTGGATTGCCACAGATCCCTGCTTCATAGATTTGCATCATTCAAGCATATCTTGTAAAACAAACACATATTATGGGACTAGGAAATATTTATCTTTCCAAATTTGCCATAACAGATTTAGGTTTCTTTCCTTTCTTTGAAGGAAAGTTTAATTACATTGCTCTTTTATTTTTTCCATTAAGAGACTCATTGCTTGGGAAATGCTTTCTTCGTACTAAAATTTGATTCCTTTTTTTCTTATGAAAAACGAACTCAGTTTAAAAGTATTTTTAGCTCGTATGACTTGTTTTCATTCATTAATAATAATTTGAAATAAAACTAAGGAAATGGAATCTTAAAAGTCTATGACAGTGTAACTCTACAGTCTCAAAATGACCTGATAAATTGATAAGACAAAGATGAGATTATTGGGGCTGTTCATATTATGATTCAGAATCATTTTCTATTGTGGTATTATAGGTTGGTTAAAGTGATGGCCTTTTTGATGGGTTTTGTTGTGTCTTGTGAACAAGTCGTTACTGTGTCCATTATTGGAATGGAATTATCACTACTGTATCATGAGTGGGTATTTTGATTCTATGGTTCCCTCAGTATTACATCTTGACTTGTAATCAATTATGAATATTTCTTGATATTTAATGTATAGGACATTTATTTATACTCAATAAATATTTTTCAAAAGG	11.7
291 (nucleic acid, listed as Homo sapiens, CDS (16)..(456)) CGCCATCCCTGACCCATGGCGCTGAAGAGGATTCAGAAAGAATTGAGTGATCTACAGCGCGATCCACCTGCTCACTGTTCAGCTGGACCTGTGGGAGATGACTTGTTCCACTGGCAAGCCACTATTATGGGGCCTCCTGATAGCGCATATCAAGGTGGAGTCTTCTTTCTCACTGTACATTTTCCGACAGATTATCCTTTTAAACCACCAAAGATTGCTTTCACAACAAAAATTTACCATCCAAACATAAACAGTAATGGAAGTATTTGTCTCGATATTCTGAGGTCACAATGGTCACCAGCTCTGACTGTATCAAAAGTTTTATTGTCCATATGTTCTCTACTTTGTGATCCTAATCCAGATGACCCCTTAGTACCAGATATTGCACAAATCTATAAATCAGACAAAGAAAAATACAACAGACATGCAAGAGAATGGACTCAGAAATATGCAATGTAA	13.0
293 (nucleic acid, listed as Homo sapiens, CDS (46)..(486)) GAGCATACACCGAGAGAGTGAGGAGCCAGACGACAAGCACACACTATGGCGCTGAAACGGATTAATAAGGAACTTAGTGATTTGGCCCGTGACCCTCCAGCACAATGTTCTGCAGGTCCAGTTGGGGATGATATGTTTCATTGGCAAGCCACAATTATGGGACCTAATGACAGCCCATATCAAGGCGGTGTATTCTTTTTGACAATTCATTTTCCTACAGACTACCCCTTCAAACCACCTAAGGTTGCATTTACAACAAGAATTTATCATCCAAATATTAACAGTAATGGCAGCATTTGTCTCGATATTCTAAGATCACAGTGGTCGCCTGCTTTAACAATTTCTAAAGTTCTTTTATCCATTTGTTCACTGCTATGTGATCCAAACCCAGATGACCCCCTAGTGCCAGAGATTGCACGGATCTATAAAACAGACAGAGATAAGTACAACAGAATATCTCGGGAATGGACTCAGAAGTATGCCATGTGATGCTACCTTAAAGTCAGAATAACCTGCATTATAGCTGGAATAAACTTTAAATTACTGTTCCTTTTTTGATTTTCTTATCCGGCTGCTCCCCTGATCAGACCTCATCTTTTTTAATTTTATTTTTTGTTTACCTCCCTCCATTCATTCACATGCTCATCTGAGAAGACTTAAGTTCTTCCAGCTTTGACAATAACTGCTTTTAGAAACTGTAAAGTAGTTACAAGAGAACAGTTGG	25.8
295 (nucleic acid, listed as Homo sapiens, CDS (64)..(519)) ACTCGTGCGTGAGGCGAGAGGAGCCGGAGACGAGACCAGAGGCCGAACTCGGGTTCTGACAAGATGGCCGGGCTGCCCCGCAGGATCATCAAGGAAACCCAGCGTTTGCTGGCAGAACCAGTTCCTGGCATCAAAGCCGAACCAGATGAGAGCAACGCCCGTTATTTTCATGTGGTCATTGCTGGCCCTCAGGATTCCCCCTTTGAGGGAGGGACTTTTAAACTTGAACTATTCCTTCCAGAAGAATACCCAATGGCAGCCCCTAAAGTACGTTTCATGACCAAAATTTATCATCCTAATGTAGACAAGTTGGGAAGAATATGTTTAGATATTTTGAAAGATAAGTGGTCCCCAGCACTGCAGATCCGCACAGTTCTGCTATCGATCCAGGCCTTGTTAAGTGCTCCCAATCCAGATGATCCATTAGCAAATGATGTAGCGGAGCAGTGGAAGACCAACGAAGCCCAAGCCATAGAAACAGCTAGAGCATGGACTAGGCTATATGCCATGAATAATATTTAAATTGATACGATCATCAAGTGTGCATCACTTCTCCTGTTCTGCCAAGACTTCCTCCTCTTTGTTTGCATTTAATGGACACAGTCTTAGAAACATTACAGAATAAAAAAGCCCAGACATCTTCAGTCCTTTGGTGATTAAATGCACATTAGCAAATCTATGTCTTGTCCTGATTCACTGTCATAAAGCATGAGCAGAGGCTAGAAGTATCATCTGGATTGTTGTGAAACGTTTAAAAGCAGTGGCCCCTCCCTGCTTTTATTCATTTCCCCCATCCTGGTTTAAGTATAAAGCACTGTGAATGAAGGTAGTTGTCAGGTTAGCTGCAGGGGTGTGGGTGTTTTTATTTTATTTTATTTTATTTTATTTTTGAGGGGGGAGGTAGTTTAATTTTATGGGCTCCTTTCCCCCTTTTTTGGTGATCTAATTGCATTGGTTAAAAGCAGCTAACCAGGTCTTTAGAATATGCTCTAGCCAAGTCTAACTTTATTTAGACGCTGTAGATGGACAAGCTTGATTGTTGGAACCAAAATGGGAACATTAAACAAACATCACAGCCCTCACTAATAACATTGCTGTCAAGTGTAGATTCCCCCCTTCAAAAAAAGCTTGTGACCATTTTGTATGGCTTGTCTGGAAACTTCTGTAAATCTTATGTTTTAGTAAAATATTTTTTGTTATTCT	31.0
